Results as given in patent publication US20240058464A1 (Fortis Therapeutics, Inc., priority 2021, published 2024).

B1: pegfilgrastim (protein, chains of the INN, looked up)
chain: TPLGPASSLPQSFLLKCLEQVRKIQGDGAALQEKLCATYKLCHPEELVLLGHSLGIPWAPLSSCPSQALQLAGCLSQLHSGLFLYQGLLQALEGISPELGPTLDTLQLDVADFATTIWQQMEELGMAPALQPTQGAMPAFASAFQRRAGGVLVASHLQSFLEVSYRVLRHLAQP
modifications: PEG
B2: filgrastim (protein, chains of the INN, looked up)
chain: MTPLGPASSLPQSFLLKCLEQVRKIQGDGAALQEKLCATYKLCHPEELVLLGHSLGIPWAPLSSCPSQALQLAGCLSQLHSGLFLYQGLLQALEGISPELGPTLDTLQLDVADFATTIWQQMEELGMAPALQPTQGAMPAFASAFQRRAGGVLVASHLQSFLEVSYRVLRHLAQP

Test system: CD46 expression
Test: CD46 expression by RNA-sequencing in unpaired pre-treatment and post-treatment tumor biopsies
Format: in vivo, human
Conditions: for CD46 expression diff: Post minus Pre, unpaired biopsies, log2-transformed counts; for CD46 expression Percentage change: post- vs pre-treatment unpaired biopsies; for CD46 expression Post: post-treatment biopsies, unpaired, RNA-seq log2-transformed normalized counts

Molecule	CD46 expression diff (Breast Cancer)	CD46 expression Percentage change (Breast Cancer) [%]	CD46 expression Post (Breast Cancer)	CD46 expression diff (Colorectal Cancer)	CD46 expression Percentage change (Colorectal Cancer) [%]	CD46 expression Post (Colorectal Cancer)	CD46 expression diff (Non-Small Cell Lung Cancer)	CD46 expression Percentage change (Non-Small Cell Lung Cancer) [%]	CD46 expression Post (Non-Small Cell Lung Cancer)
B1	−0.13	−2.1	6.25	0.29	4.6	6.62	0.07	1.2	6.06
B2	0.02	0.3	6.23						
